Patent US20190112342A1 (UNIVERSITY OF CHICAGO, published 2019)

B1: full-length strep-tagged Coa (CoaST) (other)
chain: IVTKDYSGKSQVNAGSKNGTLIDSRYLNSALYYLEDYIIYAIGLTNKYEYGDNIYKEAKDRLLEKVLREDQYLLERKKSQYEDYKQWYANYKKENPRTDLKMANFHKYNLEELSMKEYNELQDALKRALDDFHREVKDIKDKNSDLKTFNAAEEDKATKEVYDLVSEIDTLVVSYYGDKDYGEHAKELRAKLDLILGDTDNPHKITNERIKKEMIDDLNSIIDDFFMETKQNRPKSITKYNPTTHNYKTNSDNKPNFDKLVEETKKAVKEADDSWKKKTVKKYGETETKSPVVKEEKKVEEPQAPKVDNQQEVKTTAGKAEETTQPVAQPLVKIPQGTITGEIVKGPEYPTMENKTVQGEIVQGPDFLTMEQSGPSLSNNYTNPPLTNPILEGLEGSSSKLEIKPQGTESTLKGTQGESSDIEVKPQATETTEASQYGPRPQFNKTPKYVKYRDAGTGIREYNDGTFGYEARPRFNKPSETNAYNVTTHANGQVSYGARPTYKKPSETNAYNVTTHANGQVSYGARPTQNKPSKTNAYNVTTHGNGQVSYGARPTQNKPSKTNAYNVTTHANGQVSYGARPTYKKPSKTNAYNVTTHADGTATYGPRVTK
notes: Purified over Strep-Tactin-Sepharose; Used in the plasma pull-down and in the prothrombin and fibrinogen interference ELISAs; not shown: Strep tag
B2: R domain of Coa Newman with C-terminal Strep tag (RST) (other)
chain: EARPRFNKPSETNAYNVTTHANGQVSYGARPTYKKPSETNAYNVTTHANGQVSYGARPTQNKPSKTNAYNVTTHGNGQVSYGARPTQNKPSKTNAYNVTTHANGQVSYGARPTYKKPSKTNAYNVTTHADGTATYG
notes: Encoded by plasmid pET15b-rST; also called repeat (R) domain; not shown: C-terminal Strep tag

Biological target: T1, human prothrombin (human, UniProt P00734 44-622)
T1 construct: also called PT
Experiment: affinity chromatography of human citrate-plasma, immunoblot with anti-prothrombin

Binder | binding result
B1 | binds
B2 | no binding
